Publication PMC5789848, “HTLV-1 Tax plugs and freezes UPF1 helicase leading to nonsense-mediated mRNA decay inhibition” (Nature Communications, 2018)
Residue numbers refer to the chain shown, from its start. Names may count otherwise.

Experiments:
Conditions in all cases: both partners purified
[1] = target: T1, UPF1 full-length (UPF1-FL; aa 1-1118) (human, UniProt Q92900-2 1-1118); experiment: pull-down; GST-Tax as bait on GST resin, purified UPF1 proteins as prey; extensive washes with 0.3 M NaCl (methods: binding buffer with 200 mM NaCl); SDS-PAGE, coomassie staining
T1 construct: Up-Frameshift Suppressor 1 Homolog (UPF1), human, aa 1-1118; printed length 1118 aa; source: E. coli BL21 DE3, purified (nickel and calmodulin resin)
T1 sequence (looked up): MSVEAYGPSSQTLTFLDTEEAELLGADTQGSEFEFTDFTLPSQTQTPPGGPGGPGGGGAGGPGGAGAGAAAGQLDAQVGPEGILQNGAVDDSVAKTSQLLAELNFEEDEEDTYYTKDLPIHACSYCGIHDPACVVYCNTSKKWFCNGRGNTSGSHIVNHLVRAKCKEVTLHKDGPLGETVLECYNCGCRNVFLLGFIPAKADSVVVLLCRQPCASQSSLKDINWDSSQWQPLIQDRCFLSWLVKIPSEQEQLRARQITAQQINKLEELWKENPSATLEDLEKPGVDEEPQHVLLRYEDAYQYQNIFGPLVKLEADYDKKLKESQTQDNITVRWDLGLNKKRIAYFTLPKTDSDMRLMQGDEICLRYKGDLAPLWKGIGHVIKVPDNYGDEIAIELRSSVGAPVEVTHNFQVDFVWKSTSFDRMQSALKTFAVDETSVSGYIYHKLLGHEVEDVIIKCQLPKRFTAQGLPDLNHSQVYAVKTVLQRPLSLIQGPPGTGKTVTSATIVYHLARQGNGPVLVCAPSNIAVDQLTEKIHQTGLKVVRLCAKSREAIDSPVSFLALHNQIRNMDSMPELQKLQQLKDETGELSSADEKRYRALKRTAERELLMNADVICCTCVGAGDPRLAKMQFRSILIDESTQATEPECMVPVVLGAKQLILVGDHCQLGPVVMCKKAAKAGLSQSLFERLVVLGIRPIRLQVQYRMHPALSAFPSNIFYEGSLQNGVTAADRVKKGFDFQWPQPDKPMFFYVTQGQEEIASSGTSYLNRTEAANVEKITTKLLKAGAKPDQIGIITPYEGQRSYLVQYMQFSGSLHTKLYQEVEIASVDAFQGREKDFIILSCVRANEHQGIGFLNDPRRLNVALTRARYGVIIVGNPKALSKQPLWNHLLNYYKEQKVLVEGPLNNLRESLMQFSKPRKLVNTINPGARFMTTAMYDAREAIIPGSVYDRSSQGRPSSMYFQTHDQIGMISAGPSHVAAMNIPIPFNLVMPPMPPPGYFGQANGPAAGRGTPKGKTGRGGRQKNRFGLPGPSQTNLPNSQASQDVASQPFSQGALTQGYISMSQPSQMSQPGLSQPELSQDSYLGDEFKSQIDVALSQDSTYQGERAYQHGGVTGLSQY

[2] = target: T2, UPF1 helicase core domain (UPF1-HD; aa 295-914), C-terminal hexahistidine (human, UniProt Q92900-2 295-914); experiment: as above
T2 construct: UPF1, human, helicase core domain (HD), aa 295-914; numbers count on: the 1118 aa form; for UPF1-HD only the C-terminal hexahistidine is named; also called UPF1-HD-His; HisUPF1-HD; source: E. coli BL21 DE3, purified (Ni-NTA); also in E. coli lysate (co-lysis with Tax-expressing bacteria); not shown: His6, C-terminal, kept
T2 sequence (looked up): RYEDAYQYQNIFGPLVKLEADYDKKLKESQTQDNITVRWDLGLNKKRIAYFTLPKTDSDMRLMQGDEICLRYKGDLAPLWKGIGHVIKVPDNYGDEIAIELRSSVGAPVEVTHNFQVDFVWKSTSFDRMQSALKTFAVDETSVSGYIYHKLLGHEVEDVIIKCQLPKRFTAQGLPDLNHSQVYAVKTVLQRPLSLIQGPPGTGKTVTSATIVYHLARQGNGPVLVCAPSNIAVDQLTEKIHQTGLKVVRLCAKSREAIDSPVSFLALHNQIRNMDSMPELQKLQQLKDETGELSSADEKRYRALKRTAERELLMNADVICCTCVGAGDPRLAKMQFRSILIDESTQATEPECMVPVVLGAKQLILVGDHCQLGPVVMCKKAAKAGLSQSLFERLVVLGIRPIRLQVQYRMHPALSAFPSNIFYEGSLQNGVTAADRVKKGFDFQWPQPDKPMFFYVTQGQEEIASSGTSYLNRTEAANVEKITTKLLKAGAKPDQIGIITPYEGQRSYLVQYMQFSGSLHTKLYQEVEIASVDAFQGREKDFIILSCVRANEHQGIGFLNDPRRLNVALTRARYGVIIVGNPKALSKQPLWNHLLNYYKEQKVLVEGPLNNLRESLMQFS

[3] = target: T3, UPF1-CH-HD (CH and HD domains of UPF1; aa 115-914) (human, UniProt Q92900-2 115-914); experiment: as above
T3 construct: UPF1, human, CH and helicase domains, aa 115-914; numbers count on: the 1118 aa form; Tags 'and/or' as printed; source: E. coli BL21 DE3, purified (nickel and calmodulin resin)
T3 sequence (looked up): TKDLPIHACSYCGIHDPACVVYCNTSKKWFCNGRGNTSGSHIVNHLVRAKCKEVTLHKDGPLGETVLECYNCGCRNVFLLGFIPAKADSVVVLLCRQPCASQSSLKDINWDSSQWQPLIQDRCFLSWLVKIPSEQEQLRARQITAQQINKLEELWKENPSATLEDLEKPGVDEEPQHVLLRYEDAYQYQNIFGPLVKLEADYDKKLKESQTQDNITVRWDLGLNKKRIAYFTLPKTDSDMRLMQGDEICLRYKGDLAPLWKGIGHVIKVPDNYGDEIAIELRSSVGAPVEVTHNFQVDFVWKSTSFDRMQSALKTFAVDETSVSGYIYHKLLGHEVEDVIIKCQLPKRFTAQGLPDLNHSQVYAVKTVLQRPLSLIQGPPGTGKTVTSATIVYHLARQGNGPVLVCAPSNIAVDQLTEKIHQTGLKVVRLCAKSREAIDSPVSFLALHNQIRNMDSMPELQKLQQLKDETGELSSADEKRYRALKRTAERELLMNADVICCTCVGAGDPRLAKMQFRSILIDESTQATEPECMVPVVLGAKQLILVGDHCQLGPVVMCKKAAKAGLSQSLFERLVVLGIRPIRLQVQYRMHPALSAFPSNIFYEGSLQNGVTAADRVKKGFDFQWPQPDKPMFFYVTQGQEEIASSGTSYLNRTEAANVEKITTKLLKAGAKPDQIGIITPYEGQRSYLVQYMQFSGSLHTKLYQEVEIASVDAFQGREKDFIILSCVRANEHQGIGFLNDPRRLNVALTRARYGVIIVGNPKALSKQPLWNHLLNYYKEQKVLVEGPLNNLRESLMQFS

[4] = target: T4, UPF1-HD-SQ (HD and SQ domains of UPF1; aa 295-1118) (human, UniProt Q92900-2 295-1118); experiment: as above
T4 construct: UPF1, human, helicase and SQ domains, aa 295-1118; numbers count on: the 1118 aa form; Tags 'and/or' as printed; source: E. coli BL21 DE3, purified (nickel and calmodulin resin)
T4 sequence (looked up): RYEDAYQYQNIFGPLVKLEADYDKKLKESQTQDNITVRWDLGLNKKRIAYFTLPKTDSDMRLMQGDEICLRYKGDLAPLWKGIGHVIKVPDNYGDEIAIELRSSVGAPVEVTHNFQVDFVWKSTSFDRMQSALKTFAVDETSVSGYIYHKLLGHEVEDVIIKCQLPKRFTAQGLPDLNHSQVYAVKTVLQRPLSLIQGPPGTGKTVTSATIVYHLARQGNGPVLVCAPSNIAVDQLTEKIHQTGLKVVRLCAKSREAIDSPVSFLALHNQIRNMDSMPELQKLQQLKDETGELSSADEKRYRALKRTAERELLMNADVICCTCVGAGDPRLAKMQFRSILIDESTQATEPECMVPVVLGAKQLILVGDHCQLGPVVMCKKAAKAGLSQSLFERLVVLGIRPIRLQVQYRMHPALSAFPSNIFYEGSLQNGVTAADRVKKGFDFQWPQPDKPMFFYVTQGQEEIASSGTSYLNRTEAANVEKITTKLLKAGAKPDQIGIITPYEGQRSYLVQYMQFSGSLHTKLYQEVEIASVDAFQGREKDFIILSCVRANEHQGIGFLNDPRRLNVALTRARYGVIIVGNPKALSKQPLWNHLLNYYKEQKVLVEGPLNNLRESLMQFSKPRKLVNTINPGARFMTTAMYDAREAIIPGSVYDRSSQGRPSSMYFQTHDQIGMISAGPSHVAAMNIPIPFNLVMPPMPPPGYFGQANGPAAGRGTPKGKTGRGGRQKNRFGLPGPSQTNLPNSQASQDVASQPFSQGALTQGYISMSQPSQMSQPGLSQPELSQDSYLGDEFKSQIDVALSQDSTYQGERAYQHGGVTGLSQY

[5] = target: T5, GST-Tax_(CACA) (HTLV-1 Tax with C23 and C29 changed to alanine, N-terminal GST fusion) (HTLV-1, UniProt P03409 1-353, C23A | C29A); experiment: BLI; BLItz; GST-Tax covalently bound to an AR2G sensor; UPF1 His-HD proteins in running buffer (300 mM NaCl, 20 mM phosphate, 0.02% Tween 20, 0.1% albumin); 250 s association, 60 s dissociation
T5 construct: Tax protein of HTLV-1, 353 amino acids, double mutant of the zinc finger region; plasmid pGEX2T-Tax_(CACA) made from pGEX2T-TaxWT; also called GST-tagged Tax_(CACA); source: E. coli BL21-DE3, purified (glutathione magnetic beads); also in E. coli lysate (co-lysis with HisUPF1-HD bacteria); not shown: GST, N-terminal, kept

B1: GST-Tax (HTLV-1 Tax, wild type, N-terminal glutathione S-transferase fusion) (natural protein)
chain: not shown
notes: Tax protein of human T-cell lymphotropic virus type I (HTLV-1); also called TaxWT; HTLV-1 GST-Tax; source: E. coli BL21-DE3, purified (glutathione magnetic beads); also in E. coli lysate (co-lysis with HisUPF1-HD bacteria); not shown: GST, N-terminal, kept
B1: binds [1]; binds [2]; binds [3]. B1: binds [4].

B2: UPF1-HD_(DE636AA), histidine-tagged (domain or fragment)
chain: T2 sequence (looked up) with D342A, E343A
notes: numbers count on: the 1118 aa form; also called UPF1-HD_(DE633AA); UPF1-HD_(DEAA); source: E. coli BL21 DE3, purified (Ni-NTA)
In the case of B2, the “fold change of binding against WT” value [5] is reported as about 1.8 times.

B3: UPF1-HD_(R843S), histidine-tagged (domain or fragment)
chain: T2 sequence (looked up) with R549S
notes: UPF1, human, helicase core domain aa 295-914 (as UPF1-HD) with R843S; numbers count on: the 1118 aa form; source: E. coli, purified (as the other His-tagged UPF1 proteins)
With B3 the “fold loss of affinity against WT” value [5] was 4 times.
